system: MS2 coat protein; assay: apparent KD of MS2 coat protein; higher = weaker reporter binding; details: Eterna round: R107; input ligand: none
Experimental: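 RNA-MaP round R107: designed RNA switches with theophylline, tryptophan, arginine or FMN aptamers are transcribed on-chip within common flanks. They are titrated with SNAP-549-labelled MS2 coat protein in RNA-MaP buffer (100 mM Tris pH 7.5, 80 mM KCl, 4 mM MgCl2), without ligand or with the indicated ligand. Median apparent KD per design.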

Sequence | apparent KD of MS2 coat protein [nM]
UGGGUACAUGAGGAUCACCCAUGUACUGAAGGAGCGAGAAUUAUCUCAGGUAGGUCGCAGACAUGAGGAUCACCCAUGUAGUAGG [Exclusion Arginine A GF 12] | 27.3
UGUAUGUGAUCUGAUACCAGAGUGAAUAAACCUGAGGAUCACCCUGGUAGGCGAAAGCCACUCCCUUGGCAGCAGAUCGCAUACU | 139
UGUUUGGUGCGCGAGUGUUGGAUAAUUGAUACCAGUGAAGAAGAGCGCCCUUGGCAGCGAAUCCUAACAUGAGGAUCACCCAUGU [5.U] | 39.7
ACAUGAGGAUCACCCAUGUACGAGUCGGAAGGAGCGGCAAUUAAGCCAGGUAGGUCGCCGGCAGAGAGUGUCAUUGUAAGUAUGA [Same State - Arginine A / A] | 14.8
CCCUGGGUGGGAAGGAGCGCAUAGUGAACAUGAGGAUCACCCAUGUGUAGACGUGAGUCACUGCAGGUAGGUCGCCCACCCAGGG [SS-ArgB23] | 27.5
GGUCGCCAACAUGGGUGGGCGACCCUGGAAGGAGCGAGCGAGAGCUCAGGUAGGUCGCCAGAACAUGAGGAUCACCCAUGUAAUA [(A)''-(M)'-(A)'(Arg1)-(Arg2)-(M1)-(M2)_Design13] | 44.5
GGAUAGGACAGAAGGAGCGACAUGCGACGAAAGUCGAAAAGAUCACAUGAGGAUCACCCAUGUCAGGUAGGUCGCUGUCCUAUCG [ArgXB 10 #Zipper #MS2Left #StaticStem #Blueprint] | 127
ACGAUAGGACUUGAGGAACACCCAAGUGAUACCAGCCUGGAAACAGGCCCUUGGCAGCACUAAUACUCCAAUAACCUAUCGAAUA [TheoAX 15 #MicroSwitchBubble #AlternativeMS2] | 212
GCACCAGGUACGGAUACCAGCUGCCCGAGAUACAUGAGGAUCACCCAUGUGACCUGAUUUAGCCCUUGGCAGCUGUACCUGGUGC [SSThB NP+V+V2 #1] | 333
ACACAUGAGGAUCACCCAUGUGCGCUGGAAGGAGCGCAGAAUCAUGCAGGUAGGUCGCCAGUGCCUUUUGAUAAAGGGAAAAGAA [Cezaquce] | 86.1
AAUUUUAACGGAAGGAGCGUCACGUAAUUCAUACAUGAGGAUCACCCAUGUUAGUUGUAGAGACAGGUAGGUCGCCGUUAUUUGA [JR_AAArginiB_Sub025] | 15.7
AAACAUGAGGAUCACCCAUGUCCUCGUGAUCGAGGACCGGUACGGCCGCCACUCGGUCCUCGCGAGGUGGAGUCAAAGACUCCAA [Omei Trp A SS A v7] | 182
GGGUGGUAGGCGGCCGCCACUGAUUUUUAUAUAUAUAUGACAUGAGGAUCACCCAUGUAGAUAUGCAGGACCGGGCCUGUUGUUU [aaaN] | 22.2
GGUUACUCUACGGCCGCCACUGGGCAUGUAAAUAACAUGAGGAUCACCCAUGUGGAUUAAUAUUACAGGACCGGGUAGUGUAACC [Tryptophan B 23] | 279
GCGAUGGAGCGAAGGAGCGGCUAUCACCGACAAAACAUGAGGAUCACCCAUGUUGGCAGUGGCCAGGUAGGUCGCGCUCCAUCGC [EAB NP+V+V2 #8] | 11.4
UAUCCACAUGAGGAUCACCCAUGUUAGGAAGGAGCGGUGAAUGCACCAGGUAGGUCGCCUAGCUGAGGACUGUCGGUGGAUUCGU [Exclusion - Arginine A (Freestyle 19)] | 39.4
CGGUUGCCACAUGAGGAUCACCCAUGUGAAGGAGCGGCGAAUAAGCCAGGUAGGUCGCGCAUGAAUAAAUCAUGUUGGUGCCGAA [XArg-A 17 V2] | 39.7
GGGUACAUCGCGGCCGCCACUCAUGUAAAUUCAUGAGGAUCACCCAUGACGAUGGAGACAUCGGAGAGGACCGGGUGAUGUACCG | 16.8
GUAUCUAUGUGAAAUAGAUAUGUAACUGAAGGAGCGUCAUUAAGGACAGGUAGGUCGCGGAGCACAUGAGGAUCACCCAUGUCGG [#09 Same State - Arginine A] | 42.1
GGCCCUGCGAGCGCUCGCAGGGCCGCGGAUACCAGCGAGGUCCAUCGCCCUUGGCAGCCGAACAUGAGGAUCACCCAUGUCGGUA [#1 Same State - Theophylline A Attempt #13 (HarryS)] | 9.84
AAAAUAAACUCGGCCGCCACUCAACGGACCCUUUGGACAUGAGGAUCACCCAUGUAUUUUGGAAAGAGGACCGGGAGAAAUAAAA [Exclusion - Trytophan B] | 8.35

same assay, conditions: Eterna round: R107; input ligand: theophylline 20 uM

Sequence | apparent KD of MS2 coat protein [nM]
GGGAUAUCCCGAAGGAGCGCGAGAUGCUGUGCUGCAUUCCUCACAUGAGGAUCACCCAUGUCGCAGGUAGGUCGCGGGAUAUCCC [#16 Exclusion - Arginine B] | 452
AAUAAUAACAUGGGUGAAGUCGUACCAUAACGAGGACCGGUACGGCCGCCACUCGAACAUGAGGAUCACCCAUGUAGGUACGACA [M'-T'-T-MS2-T'' - Design 9] | 110
UGGGUACAUGAGGAUCACCCAUGUACUGAAGGAGCGAGAAUUAUCUCAGGUAGGUCGCAGACAUGAGGAUCACCCAUGUAGUAGG [Exclusion Arginine A GF 12] | 30.6
UGUAUGUGAUCUGAUACCAGAGUGAAUAAACCUGAGGAUCACCCUGGUAGGCGAAAGCCACUCCCUUGGCAGCAGAUCGCAUACU | 112
UGUUUGGUGCGCGAGUGUUGGAUAAUUGAUACCAGUGAAGAAGAGCGCCCUUGGCAGCGAAUCCUAACAUGAGGAUCACCCAUGU [5.U] | 84.8
CGAUCUUUCGAAAGAAGGAUCGAGUCUGAUACCAGAGACGAAAGUCUCCCUUGGCAGCAGUGCCAACAUGAGGAUCACCCAUGUU [Theophylline A 10] | 19.1
AAACAUGAGGAUCACCCAUGUCCUCCUGUCCGAGGACCGGUACGGCCGCCACUCGGUUCUCGGGAGGAUGGUCAAAGACUAUCCA [Omei Trp A SS B v9] | 327
ACAUGAGGAUCACCCAUGUACGAGUCGGAAGGAGCGGCAAUUAAGCCAGGUAGGUCGCCGGCAGAGAGUGUCAUUGUAAGUAUGA [Same State - Arginine A / A] | 26.8
UGCGAUUGCUCAGAUACCAGACAUGAGGAUCACCCAUGUACCAAGGUAAAGAAAUAACGUGUCCCUUGGCAGCUGAGCAAUCGCU [MAT - Exclusion Theophlline B - Mod of Eli - D9] | 14
CCCUGGGUGGGAAGGAGCGCAUAGUGAACAUGAGGAUCACCCAUGUGUAGACGUGAGUCACUGCAGGUAGGUCGCCCACCCAGGG [SS-ArgB23] | 47.3
GGUCGCCAACAUGGGUGGGCGACCCUGGAAGGAGCGAGCGAGAGCUCAGGUAGGUCGCCAGAACAUGAGGAUCACCCAUGUAAUA [(A)''-(M)'-(A)'(Arg1)-(Arg2)-(M1)-(M2)_Design13] | 162
GGAUAGGACAGAAGGAGCGACAUGCGACGAAAGUCGAAAAGAUCACAUGAGGAUCACCCAUGUCAGGUAGGUCGCUGUCCUAUCG [ArgXB 10 #Zipper #MS2Left #StaticStem #Blueprint] | 115
ACGAUAGGACUUGAGGAACACCCAAGUGAUACCAGCCUGGAAACAGGCCCUUGGCAGCACUAAUACUCCAAUAACCUAUCGAAUA [TheoAX 15 #MicroSwitchBubble #AlternativeMS2] | 172
UGUGUGUGACCAGGAAAUGGUCACACACAGCGAGGACCGGUACGGCCGCCACUCGGCCGUACAUGAGGAUCACCCAUGUCGGGUA [#1 Same State - Tryptophan A Attempt #9 (HarryS)] | 961
AGAGGUAUACAUGGAAACAUGUAUAUUUCACGAGGACCGGUACGGCCGCCACUCGGUACCGGAAACACAUGAGGAUCACCCAUGU [Ex_TrypA - H1] | 23.2
GCACCAGGUACGGAUACCAGCUGCCCGAGAUACAUGAGGAUCACCCAUGUGACCUGAUUUAGCCCUUGGCAGCUGUACCUGGUGC [SSThB NP+V+V2 #1] | 189
AUUUAUUGUCGUGAUACCAGACAUACAUGAGGAUCACCCAUGUUAAGUAACUUUUUUCAGGUCCCUUGGCAGCACUUUUUAAUUA [JR_Nu_SSTheophyB_Sub019] | 23.8
CAAUGCAGGUCGGCCGCCACUACACACAUGAGGAUCACCCAUGUAGUUACUGGGUGAAGUGGCAGUAGGACCGGGACCUGCAUAA [Brourdmod02] | 417
ACACAUGAGGAUCACCCAUGUGCGCUGGAAGGAGCGCAGAAUCAUGCAGGUAGGUCGCCAGUGCCUUUUGAUAAAGGGAAAAGAA [Cezaquce] | 94.6
AAUUUUAACGGAAGGAGCGUCACGUAAUUCAUACAUGAGGAUCACCCAUGUUAGUUGUAGAGACAGGUAGGUCGCCGUUAUUUGA [JR_AAArginiB_Sub025] | 20.9

— the supplement of paper PMC9170038
